From patent US20240109971A1 (MONASH UNIVERSITY, published 2024)

Assays:
[1] = target: T1, Peptide 1 (amino acid position 1-28 of the human CCR6) (human, biotinylated); test: ELISA, biotinylated peptide on a streptavidin-coated plate
T1 construct: also called first 28 AA
T1 peptide: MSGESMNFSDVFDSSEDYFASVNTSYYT
Method: (§1) Two overlapping biotinylated peptides spanning the entire N-terminal region of human CCR6 were then synthesized and used in more defined anti-CCR6 mAb epitope mapping studies. Peptide 1 ([…], SEQ ID NO: 2) corresponds to amino acid position 1-28 of the human CCR6 and Peptide 2 ([…], SEQ ID NO: 101) corresponds to amino acid position 18-46 of the human CCR6. Briefly, multiwell plates were coated with streptavidin and washed before the biotinylated peptides were added to separate wells and incubated to facilitate binding of the peptides to the plate. Different anti-human CCR6 antibodies were then tested by adding the respective antibodies to the wells of the plate and incubating the plate. An isotype control and buffer only were included as negative controls. Following washing, appropriate conjugated antibodies were added and the plates were incubated. The plates were washed again and binding of the antibodies to the immobilised peptides was visualised (FIGS. 8 and 9).

[2] = target: T2, human CCR6 (human, UniProt P51684 1-374); test: flow cytometry, hybridoma culture supernatant on L1.2/hCCR6 transfectants
T2 construct: also called hCCR6; CD196
T2 sequence: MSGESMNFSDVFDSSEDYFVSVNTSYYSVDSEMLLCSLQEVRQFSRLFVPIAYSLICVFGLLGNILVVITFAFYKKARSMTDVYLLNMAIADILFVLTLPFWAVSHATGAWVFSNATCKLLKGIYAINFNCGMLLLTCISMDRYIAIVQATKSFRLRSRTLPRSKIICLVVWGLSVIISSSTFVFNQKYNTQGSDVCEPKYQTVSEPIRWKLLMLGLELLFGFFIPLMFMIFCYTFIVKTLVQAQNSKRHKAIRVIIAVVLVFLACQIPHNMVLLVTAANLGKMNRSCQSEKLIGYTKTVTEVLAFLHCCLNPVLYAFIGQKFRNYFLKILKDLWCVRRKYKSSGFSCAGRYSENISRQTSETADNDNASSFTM

[3] = target: T3, hCXCR1 (human, UniProt P25024 1-350); test: flow cytometry, hybridoma culture supernatant on L1.2/hCXCR1 transfectants
T3 construct: whole, on cells; also called hCXCRI; human CXCR1 transfected L1.2 cells
T3 sequence (looked up): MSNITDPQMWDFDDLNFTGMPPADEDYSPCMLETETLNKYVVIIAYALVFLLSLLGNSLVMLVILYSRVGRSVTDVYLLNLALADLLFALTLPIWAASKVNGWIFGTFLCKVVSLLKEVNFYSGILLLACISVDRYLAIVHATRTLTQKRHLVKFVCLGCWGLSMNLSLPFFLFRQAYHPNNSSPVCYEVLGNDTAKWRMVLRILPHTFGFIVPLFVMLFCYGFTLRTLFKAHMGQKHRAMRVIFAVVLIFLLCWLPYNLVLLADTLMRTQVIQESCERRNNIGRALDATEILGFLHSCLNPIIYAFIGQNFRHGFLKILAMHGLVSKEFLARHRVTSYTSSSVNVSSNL

[4] = target: T4, hCXCR2 (human, UniProt P25025 1-360); test: flow cytometry, hybridoma culture supernatant on L1.2/hCXCR2 transfectants
T4 construct: whole, on cells; also called human CXCR2 transfected L1.2 cells
T4 sequence (looked up): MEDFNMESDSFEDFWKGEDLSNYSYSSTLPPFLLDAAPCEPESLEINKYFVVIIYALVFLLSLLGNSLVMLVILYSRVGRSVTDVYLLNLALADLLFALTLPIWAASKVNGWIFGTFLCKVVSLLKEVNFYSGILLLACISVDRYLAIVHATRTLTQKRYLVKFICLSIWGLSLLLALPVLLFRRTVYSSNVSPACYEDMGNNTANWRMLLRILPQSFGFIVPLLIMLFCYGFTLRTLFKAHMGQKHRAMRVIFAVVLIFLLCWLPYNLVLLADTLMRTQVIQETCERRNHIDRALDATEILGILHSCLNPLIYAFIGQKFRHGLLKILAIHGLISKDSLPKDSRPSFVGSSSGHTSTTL

[5] = target: T5, hCXCR3 (human, UniProt P49682 1-368); test: flow cytometry, hybridoma culture supernatant on L1.2/hCXCR3 transfectants
T5 construct: whole, on cells; also called human CXCR3 transfected L1.2 cells
T5 sequence (looked up): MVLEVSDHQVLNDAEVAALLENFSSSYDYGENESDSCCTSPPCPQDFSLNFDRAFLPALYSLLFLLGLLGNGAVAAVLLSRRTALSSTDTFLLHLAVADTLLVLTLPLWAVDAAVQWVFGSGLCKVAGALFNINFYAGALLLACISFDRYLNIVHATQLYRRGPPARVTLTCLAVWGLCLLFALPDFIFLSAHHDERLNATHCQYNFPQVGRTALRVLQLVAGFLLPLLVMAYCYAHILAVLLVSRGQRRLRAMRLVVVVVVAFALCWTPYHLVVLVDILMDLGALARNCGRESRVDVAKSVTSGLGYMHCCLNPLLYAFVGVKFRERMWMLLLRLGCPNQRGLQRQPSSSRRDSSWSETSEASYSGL

[6] = target: T2, human CCR6; test: competition with 125I-MIP-3α for L1.2/hCCR6 transfectants, partially purified mAb
Method: For ligand binding analysis, recombinant human CCL20 (MIP3α) (“ligand”) was obtained from Peprotech (New Jersey, USA). […] Cells were washed once in binding buffer (50 mM Hepes, pH 7.5, 1 mM CaCl, 5 mM MgCb, 0.5% BSA) and resuspended in binding buffer at a concentration of 2.5×10^6 cells/ml. Cold Purified monoclonal antibody or diluted hybridoma culture medium (cold competitor) was added to a 96-well plate followed by an equal volume (40 μl) binding buffer containing 1×10^5 cells. Cells and competitor were preincubated at room temperature for 15 min. Then radiolabeled ligand (final concentration 0.5-2 nM) was added to each well to give a final reaction volume of 120 μl. After a 60-min incubation at room temperature, the cells were washed three times with 1 ml of binding buffer containing 150 mM NaCl. The radioactivity (amount of bound label) in the cell pellets was counted in a TopCount liquid scintillation counter (Packard). Non-specific background binding was calculated by incubating cells […]. Samples were assayed in duplicate.
After incubation and washing the amount of label bound to cells was measured and the percentage inhibition determined by comparison to a control reaction with no added antibody (FIGS. 1 and 5).

[7] = target: T6, Peptide 2 (amino acid position 18-46 of the human CCR6) (human, biotinylated); test: ELISA, biotinylated peptide on a streptavidin-coated plate
T6 construct: also called AA 18 to 46
T6 peptide: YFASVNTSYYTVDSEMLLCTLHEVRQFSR
Method: as §1

B1: AB3 (antibody, V domains shown)
VH: EVNLVESGGGLVQPGGSLKLSCAASGFTFSDYYLYWVRQTPEKRLEWVTYITNGGGRTYYSDTVRGRFTISRDNAKNTLYLQMSRLKSEDTAMYYCASPPLGGAWFGYWGQGTLVTVS
VL: DVLMTQTPLSLPVSLGDQASISCRSSQSIVHSNGNTYLEWYLQKPGQSPKLLIYKVSKRFSGVPDRFSGSGSGTDFTLKISRVEAEDLGVYYCFQGSHVPLTFGAGTKLELKR
notes: Mouse hybridoma antibody, isotype IgG1; also called AB3-N21
B1: binds [1]; binds [2]; no binding (tested: not given (culture supernatant)) [3]. B1: no binding (tested: not given (culture supernatant)) [4]; no binding (tested: not given (culture supernatant)) [5].

B2: AB4 (antibody, V domains shown)
VH: EVNLVESGGGLVQPGGSLKLSCAASGFTFSDYYMYWVRQTPEKRLEWVTYITNGGGRTYYSDTVRGRFTISRDNAKNTLYLQMSRLKSEDTAMYYCASPPLGGAWFGYWGQGTLVTVS
VL: DVLMTQTPLSLPVSLGDQASISCRSSQSLVHSNGNTYLEWYLQKPGQSPKLLIYKVSKRFSGVPDRFSGSGSGTDFTLKISRVGAEDLGVYYCFQGSHVPLTFGAGTKLELKR
notes: Mouse hybridoma antibody, isotype IgG2b; also called AB4-K15
B2: binds [2]; no binding (tested: not given (culture supernatant)) [3]; no binding (tested: not given (culture supernatant)) [4]. B2: no binding (tested: not given (culture supernatant)) [5].

B3: mouse AB6 mAb (antibody, V domains shown)
VH: EVKLVESGGGLVQPGGSLKLSCAASGFPFSDYYLYWVRQTPEKRLEWVAYITNGVGRTYYSDSVKGRFTISRDNAKNTLYLQMSRLKSEDTSMYYCTSPPLGGAWFAYWGQGTLVTVS
VL: DVLMTQTPLSLPVSLGDQASISCRSSQSIVHSNGNTYLEWYLQKPGQSPKLLIYKVSKRFSGVPDRFSGSGSGTDFTLKISRVEAEDLGVYYCFQGSHVPLTFGAGTKLELKR
notes: Mouse hybridoma antibody, isotype IgG2b; also called mAB6; AB6-K5
B3: binds [1]; no binding (tested: not given (culture supernatant)) [3]; no binding (tested: not given (culture supernatant)) [4]. For the same binder, the binding result [5] was “no binding (tested: not given (culture supernatant))” and the “IC50 (read off the curve)” value [6] was ~7 nM.

B4: AB2 (antibody, V domains shown)
VH: EVNLVESGGGLVQPGGSLKLSCEASGFSFSDYYMYWVRQTPEKRLEWVTYITNGGGRTYYSDTIRGRFTISRDNARNTLYLQMSRLKSEDTAMYYCTSPPLGGAWFGYWGQGTLVTVS
VL: DVSMTQTPLSLPVSLGDQASISCRSSQSLVHSNGNTYLEWYLQKPGQSPKLLIYKVSKRFSGVPDRFSGSGSGTDFTLKISRVEAEDLGVYYCFQGSHVPLTFGAGTKLELKR
notes: Mouse hybridoma antibody, isotype IgG1; also called AB2-O17
B4: binds [1]; binds [6].

B5: AB5 (antibody, V domains shown)
VH: EVNLVESGGGLVQPGGSLKLSCEASGFTFSDYYMYWVRQTPEKRLEWVTYITNGAGRTYYSDTVRGRFTISRDNAKNTLYLQMSRLKSEDTAMYYCASPPLGGAWFAYWGQGTLVTVS
VL: DVSMTQTPLSLPVSLGDQASISCRSSQSLVHSNGNTYLEWYLQKPGQSPKLLIYKVSKRFSGVPDRFSGSGSGTDFTLKISRVEAEDLGVYYCFQGSHVPLTFGAGTKLELKR
notes: Mouse hybridoma antibody, isotype IgG1; also called AB5-M19
B5: binds [6].

B6: AB11 (antibody, V domains shown)
VH: EVNLVESGGGLVQPGGSLILSCEASGFSFSDYYMYWVRQTPEKRLEWVTYITNGGGRTYYSDAIRGRFTISRDNARNTLYLQMSRLKSEDTAMYYCTSPPLGGAWFGYWGQGTLVTVS
VL: DVSMTQTPLSLPVSLGDQASISCRSSQSLVHSNGNTYLEWYLQKPGQSPKLLIYKVSKRFSGVPDRFSGSGSGTDFTLKISRVEAEDLGVYYCFQGSHVPLTFGAGTKLELKR
notes: Mouse hybridoma antibody, isotype IgG1; also called AB11-M9
B6: binds [1]; binds [6].

B7: AB7 (antibody, V domains shown)
VH: QDQLQQSGVALARPGASVKLSCKASEYTFKSFGLGWVKQRPGQGLEWIGEIYPRSGNTYYNEKVKGKVRLTADKSSNSVYMEFRSLTSEDSAVYFCARSPYDGYFDYWGQGTTLTVS
VL: DVVMTHSPLSLPVSLGDQASISCRSSQSLLHINGNTYLHWYLQKPGQSPKLLIYRVSNRLSGVPDRFSGSGSGTDFTLKISRVEAEDLGVYFCSQSTHVPRTFGGGTKLEIKR
notes: Mouse hybridoma antibody; also called clone AB7
B7: binds [1]; binds [7].
